Results as given in PMC11189300 (2024).

T1: Mis12C with KNL1_(2,026–2,342) bound (human, UniProt Q9H081 1-205; Q6P1K2 1-205; Q96IY1 1-281; Q9H410 1-356; Q8NG31 2026-2342)
T1 chain 1: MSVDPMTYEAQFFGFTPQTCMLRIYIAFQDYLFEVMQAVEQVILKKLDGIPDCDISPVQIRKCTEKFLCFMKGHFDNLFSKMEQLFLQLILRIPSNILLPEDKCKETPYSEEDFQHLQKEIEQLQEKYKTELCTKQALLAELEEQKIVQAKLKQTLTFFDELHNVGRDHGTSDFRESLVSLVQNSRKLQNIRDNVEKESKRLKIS
T1 chain 2: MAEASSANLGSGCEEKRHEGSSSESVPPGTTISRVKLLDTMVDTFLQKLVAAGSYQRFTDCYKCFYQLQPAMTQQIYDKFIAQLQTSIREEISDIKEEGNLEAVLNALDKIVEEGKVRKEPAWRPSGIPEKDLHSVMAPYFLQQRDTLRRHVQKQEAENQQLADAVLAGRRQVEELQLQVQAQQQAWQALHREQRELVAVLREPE
T1 chain 3: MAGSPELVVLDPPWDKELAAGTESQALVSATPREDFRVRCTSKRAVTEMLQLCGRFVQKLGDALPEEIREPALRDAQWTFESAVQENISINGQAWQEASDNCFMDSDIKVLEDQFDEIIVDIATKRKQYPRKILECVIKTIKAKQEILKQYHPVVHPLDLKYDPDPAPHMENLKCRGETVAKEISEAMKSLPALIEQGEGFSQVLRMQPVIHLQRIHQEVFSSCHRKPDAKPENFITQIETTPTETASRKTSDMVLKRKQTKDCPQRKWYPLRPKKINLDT
T1 chain 4: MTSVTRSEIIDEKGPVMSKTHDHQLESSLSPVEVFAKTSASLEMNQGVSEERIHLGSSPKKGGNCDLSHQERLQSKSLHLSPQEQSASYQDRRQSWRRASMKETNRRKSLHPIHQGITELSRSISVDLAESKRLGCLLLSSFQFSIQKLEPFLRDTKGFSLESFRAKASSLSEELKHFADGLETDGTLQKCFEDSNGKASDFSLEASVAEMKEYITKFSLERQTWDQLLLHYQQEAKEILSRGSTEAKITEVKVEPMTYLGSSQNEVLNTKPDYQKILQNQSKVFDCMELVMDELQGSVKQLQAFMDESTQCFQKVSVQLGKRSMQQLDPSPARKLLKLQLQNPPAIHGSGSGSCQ
T1 chain 5: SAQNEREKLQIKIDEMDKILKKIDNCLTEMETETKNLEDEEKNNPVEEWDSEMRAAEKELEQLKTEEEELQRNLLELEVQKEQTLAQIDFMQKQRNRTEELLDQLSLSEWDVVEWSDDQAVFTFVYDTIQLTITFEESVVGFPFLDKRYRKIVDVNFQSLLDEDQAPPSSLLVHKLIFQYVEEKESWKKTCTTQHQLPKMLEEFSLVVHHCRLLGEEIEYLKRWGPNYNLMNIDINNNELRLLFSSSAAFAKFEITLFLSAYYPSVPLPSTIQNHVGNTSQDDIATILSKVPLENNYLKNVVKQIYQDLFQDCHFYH

T2: KNL1 (construct of the BLI titrations with ZWINT) (human, UniProt Q8NG31)
T2 chain: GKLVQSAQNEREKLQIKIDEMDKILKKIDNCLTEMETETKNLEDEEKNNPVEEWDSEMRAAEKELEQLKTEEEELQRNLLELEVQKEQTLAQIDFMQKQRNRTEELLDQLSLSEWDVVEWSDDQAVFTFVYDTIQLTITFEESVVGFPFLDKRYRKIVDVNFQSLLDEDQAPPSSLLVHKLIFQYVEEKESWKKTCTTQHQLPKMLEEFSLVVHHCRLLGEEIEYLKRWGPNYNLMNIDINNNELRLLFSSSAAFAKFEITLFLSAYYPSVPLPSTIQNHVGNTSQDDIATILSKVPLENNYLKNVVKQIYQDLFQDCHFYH

B1: Mis12 complex (Mis12C), full length: MIS12, PMF1, NSL1, DSN1 (complex)
chain 1: T1 chain 1
chain 2: T1 chain 2
chain 3: T1 chain 3
chain 4: T1 chain 4
B2: Ndc80 complex (Ndc80C): NDC80^HEC1, NUF2, SPC24, SPC25 (complex)
chain 1: MKRSSVSSGGAGRLSMQELRSQDVNKQGLYTPQTKEKPTFGKLSINKPTSERKVSLFGKRTSGHGSRNSQLGIFSSSEKIKDPRPLNDKAFIQQCIRQLCEFLTENGYAHNVSMKSLQAPSVKDFLKIFTFLYGFLCPSYELPDTKFEEEVPRIFKDLGYPFALSKSSMYTVGAPHTWPHIVAALVWLIDCIKIHTAMKESSPLFDDGQPWGEETEDGIMHNKLFLDYTIKCYESFMSGADSFDEMNAELQSKLKDLFNVDAFKLESLEAKNRALNEQIARLEQEREKEPNRLESLRKLKASLQGDVQKYQAYMSNLESHSAILDQKLNGLNEEIARVELECETIKQENTRLQNIIDNQKYSVADIERINHERNELQQTINKLTKDLEAEQQKLWNEELKYARGKEAIETQLAEYHKLARKLKLIPKGAENSKGYDFEIKFNPEAGANCLVKYRAQVYVPLKELLNETEEEINKALNKKMGLEDTLEQLNAMITESKRSVRTLKEEVQKLDDLYQQKIKEAEEEDEKCASELESLEKHKHLLESTVNQGLSEAMNELDAVQREYQLVVQTTTEERRKVGNNLQRLLEMVATHVGSVEKHLEEQIAKVDREYEECMSEDLSENIKEIRDKYEKKATLIKSSEE
chain 2: METLSFPRYNVAEIVIHIRNKILTGADGKNLTKNDLYPNPKPEVLHMIYMRALQIVYGIRLEHFYMMPVNSEVMYPHLMEGFLPFSNLVTHLDSFLPICRVNDFETADILCPKAKRTSRFLSGIINFIHFREACRETYMEFLWQYKSSADKMQQLNAAHQEALMKLERLDSVPVEEQEEFKQLSDGIQELQQSLNQDFHQKTIVLQEGNSQKKSNISEKTKRLNELKLSVVSLKEIQESLKTKIVDSPEKLKNYKEKMKDTVQKLKNARQEVVEKYEIYGDSVDCLPSCQLEVQLYQKKIQDLSDNREKLASILKESLNLEDQIESDESELKKLKTEENSFKRLMIVKKEKLATAQFKINKKHEDVKQYKRTVIEDCNKVQEKRGAVYERVTTINQEIQKIKLGIQQLKDAAEREKLKSQEIFLNLKTALEKYHDGIEKAAEDSYAKIDEKTAELKRKMFKMST
chain 3: MAAFRDIEEVSQGLLSLLGANRAEAQQRRLLGRHEQVVERLLETQDGAEKQLREILTMEKEVAQSLLNAKEQVHQGGVELQQLEAGLQEAGEEDTRLKASLLQLTRELEELKEIEADLERQEKEVDEDTTVTIPSAVYVAQLYHQVSKIEWDYECEPGMVKGIHHGPSVAQPIHLDSTQLSRKFISDYLWSLVDTEW
chain 4: MVEDELALFDKSINEFWNKFKSTDTSCQMAGLRDTYKDSIKAFAEKLSVKLKEEERMVEMFLEYQNQISRQNKLIQEKKDNLLKLIAEVKGKKQELEVLTANIQDLKEEYSRKKETISTANKANAERLKRLQKSADLYKDRLGLEIRKIYGEKLQFIFTNIDPKNPESPFMFSLHLNEARDYEVSDSAPHLEGLAEFQENVRKTNNFSAFLANVRKAFTATVYN
B3: ZWINT (natural protein)
chain: MEAAETEAEAAALEVLAEVAGILEPVGLQEEAELPAKILVEFVVDSQKKDKLLCSQLQVADFLQNILAQEDTAKGLDPLASEDTSRQKAIAAKEQWKELKATYREHVEAIKIGLTKALTQMEEAQRKRTQLREAFEQLQAKKQMAMEKRRAVQNQWQLQQEKHLQHLAEVSAEVRERKTGTQQELDRVFQKLGNLKQQAEQERDKLQRYQTFLQLLYTLQGKLLFPEAEAEAENLPDDKPQQPTRPQEQSTGDTMGRDPGVSFKAVGLQPAGDVNLP
B4: KNL1 residues 2,026–2,342 (domain or fragment)
chain: T1 chain 5

Columns and labels:
KNL1^M1 = KNL1^M1 (human, UniProt Q8NG31); assay: ITC
KNL1^M2 = KNL1^M2 (human, UniProt Q8NG31); assay: ITC
SPC24^Y138A/SPC25 = SPC24^Y138A/SPC25 (human, UniProt Q8NBT2 1-197; Q9HBM1 1-224, Y138A); assay: ITC
SPC24/SPC25^L154A-L176A = SPC24/SPC25^L154A-L176A (human, UniProt Q8NBT2 1-197; Q9HBM1 1-224, L154A | L176A); assay: ITC
[1] = target: T1, Mis12C with KNL1_(2,026–2,342) bound; assay: BLI
[2] = target: B1; assay: BLI
[3] = target: T1, Mis12C with KNL1_(2,026–2,342) bound; assay: BLI
[4] = target: T2, KNL1 (construct of the BLI titrations …); assay: BLI; Kd1
[5] = target: T2, KNL1 (construct of the BLI titrations …); assay: BLI; Kd2 (second site)
Mis12C^M2 = Mis12C^M2 (human, UniProt Q9H081 1-205; Q6P1K2 1-205; Q96IY1 1-281; Q9H410 1-356); assay: ITC
Mis12C^M1 = Mis12C^M1 (human, UniProt Q9H081 1-205; Q6P1K2 1-205; Q96IY1 1-281; Q9H410 1-356); assay: ITC

## B1
KNL1^M1
  Kd: 140 nM
KNL1^M2
  Kd: 109 nM
SPC24^Y138A/SPC25
  Kd: 295 nM
SPC24/SPC25^L154A-L176A
  Kd: 1270 nM

## B2
[1]
  Kd: 1.15 nM
[2]
  koff: 0.000582 s⁻¹
[3]
  koff: 0.00024 s⁻¹

## B3
[4]
  Kd: 81.8 nM
[5]
  Kd: 65.3 nM

## B4
Mis12C^M2
  Kd: 24.8 nM
Mis12C^M1
  Kd: 45.2 nM
[2]
  koff: 0.000451 s⁻¹
